Data: US20220177587A1, “METHODS AND USES OF VARIANT CD80 FUSION PROTEINS AND RELATED CONSTRUCTS” (Alpine Immune Sciences, Inc., priority 2018, published 2022)
Read-outs that look alike come from different tables or passages of the source. One block for each substance: values may come before it.

What was measured:
PD-L1 (human) [1] = molecular target: PD-L1 (human) (UniProt Q9NZQ7); test: flow cytometry, CHO cells expressing huPD-L1
human CTLA-4 (human) [2] = molecular target: human CTLA-4 (human) (UniProt P16410); test: flow cytometry, CHO cells expressing huCTLA-4
Sequence of human CTLA-4 (human) (P16410 36-223): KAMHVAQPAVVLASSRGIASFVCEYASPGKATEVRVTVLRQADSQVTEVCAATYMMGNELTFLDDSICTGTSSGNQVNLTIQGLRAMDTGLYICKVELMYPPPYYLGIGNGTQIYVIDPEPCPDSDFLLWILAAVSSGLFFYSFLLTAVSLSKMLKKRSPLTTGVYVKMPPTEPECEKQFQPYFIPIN

CD28 (human) [3] = molecular target: CD28 (human) (UniProt P10747); test: flow cytometry, Jurkat/IL2 reporter cells (CD28)
PD-L1 (human) [4] = molecular target: PD-L1 (human) (UniProt Q9NZQ7); test: flow cytometry, CHO/huPD-L1 cells; vs WT CD80 ECD-Fc (Abcam)
CD28 (human) [5] = molecular target: CD28 (human) (UniProt P10747)
CD28 (human) [6] = molecular target: CD28 (human) (UniProt P10747); remark: listed apart in the source
CD28 (human) [7] = molecular target: CD28 (human) (UniProt P10747); test: flow cytometry, HEK293 cells transfected with full-length human CD28, PE anti-human Fc
CD28 (human) [8] = molecular target: CD28 (human) (UniProt P10747); remark: listed apart in the source
PD-L1 (human) [9] = molecular target: PD-L1 (human) (UniProt Q9NZQ7)
CD28 (human) [10] = molecular target: CD28 (human) (UniProt P10747); remark: listed apart in the source
PD-L1 (human) [11] = molecular target: PD-L1 (human) (UniProt Q9NZQ7); remark: listed apart in the source
CD28 (human) [12] = molecular target: CD28 (human) (UniProt P10747); test: flow cytometry, Jurkat cells (CD28)
human CTLA-4 (human) [13] = molecular target: human CTLA-4 (human) (UniProt P16410); test: flow cytometry, CHO cells stably expressing CTLA4
PD-L1 (human) [14] = molecular target: PD-L1 (human) (UniProt Q9NZQ7); test: flow cytometry, CHO cells stably expressing PD-L1
PD-L1 (human) [15] = molecular target: PD-L1 (human) (UniProt Q9NZQ7); test: flow cytometry, MFI on CHO/PD-L1 over MFI on Jurkat (CD28)
PD-L1 (human) [16] = molecular target: PD-L1 (human) (UniProt Q9NZQ7); test: flow cytometry, HEK293 cells transfected with full-length human PD-L1, PE anti-human Fc
CD28 (human) [17] = molecular target: CD28 (human) (UniProt P10747); remark: listed apart in the source
PD-L1 (human) [18] = molecular target: PD-L1 (human) (UniProt Q9NZQ7); remark: listed apart in the source
human CTLA-4 (human) [19] = molecular target: human CTLA-4 (human) (UniProt P16410); test: flow cytometry, CHO/huCTLA-4 cells; vs WT CD80 ECD-Fc (Abcam)
CD28 (human) [20] = molecular target: CD28 (human) (UniProt P10747); remark: listed apart in the source
PD-L1 (human) [21] = molecular target: PD-L1 (human) (UniProt Q9NZQ7); remark: listed apart in the source
CD28 (human) [22] = molecular target: CD28 (human) (UniProt P10747); test: flow cytometry, Jurkat cells (CD28); remark: listed apart in the source
human CTLA-4 (human) [23] = molecular target: human CTLA-4 (human) (UniProt P16410); test: flow cytometry, CHO cells stably expressing CTLA4; remark: listed apart in the source
PD-L1 (human) [24] = molecular target: PD-L1 (human) (UniProt Q9NZQ7); test: flow cytometry, CHO cells stably expressing PD-L1; remark: listed apart in the source
human CTLA-4 (human) [25] = molecular target: human CTLA-4 (human) (UniProt P16410); test: flow cytometry, CHO/CTLA4 cells; MFI over CD80 WT IgV-Fc
PD-L1 (human) [26] = molecular target: PD-L1 (human) (UniProt Q9NZQ7); test: flow cytometry, CHO/PD-L1 cells; MFI over CD80 WT IgV-Fc
CD28 (human) [27] = molecular target: CD28 (human) (UniProt P10747); test: flow cytometry, Jurkat cells (CD28); MFI over CD80 WT IgV-Fc
[28] = molecular target: human PD-L1 (huPD-L1), on stably transduced CHO cells (human) (UniProt Q9NZQ7); test: flow cytometry; ratio of MFI on CHO/huPD-L1 cells to MFI on Jurkat (CD28) cells
Sequence of human PD-L1 (huPD-L1), on stably transduced CHO cells (human) (Q9NZQ7 19-290): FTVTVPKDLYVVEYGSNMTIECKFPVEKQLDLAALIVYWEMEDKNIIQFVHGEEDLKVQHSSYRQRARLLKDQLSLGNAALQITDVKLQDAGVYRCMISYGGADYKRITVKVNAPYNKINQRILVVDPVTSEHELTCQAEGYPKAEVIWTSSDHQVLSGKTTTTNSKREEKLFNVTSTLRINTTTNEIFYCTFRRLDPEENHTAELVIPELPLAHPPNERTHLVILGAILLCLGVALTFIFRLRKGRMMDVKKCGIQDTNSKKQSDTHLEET

[29] = molecular target: human CTLA-4 (huCTLA4), on stably transduced CHO cells (human) (UniProt P16410); test: flow cytometry on CHO/huCTLA4 cells; MFI relative to WT CD80 (CD80 WT IgV-Fc = 1.0)
Sequence of human CTLA-4 (huCTLA4), on stably transduced CHO cells (human) (P16410 36-223): as the sequence (P16410 36-223) above

[30] = molecular target: human PD-L1 (huPD-L1), on stably transduced CHO cells (human) (UniProt Q9NZQ7); test: flow cytometry on CHO/huPD-L1 cells; MFI relative to WT CD80 (CD80 WT IgV-Fc = 1.0)
[31] = molecular target: CD28, endogenously expressed on Jurkat/IL2 reporter cells (human) (UniProt P10747); test: flow cytometry on Jurkat (CD28) cells; MFI relative to WT CD80 (CD80 WT IgV-Fc = 1.0)
[32] = molecular target: human CTLA-4 (huCTLA4), on stably transduced CHO cells (human) (UniProt P16410); test: flow cytometry on CHO cells stably expressing huCTLA4, 33.3 nM Fc fusion, PE anti-human Fc
[33] = molecular target: human PD-L1 (huPD-L1), on stably transduced CHO cells (human) (UniProt Q9NZQ7); test: flow cytometry on CHO cells stably expressing huPD-L1, 33.3 nM Fc fusion, PE anti-human Fc
[34] = molecular target: CD28, endogenously expressed on Jurkat/IL2 reporter cells (human) (UniProt P10747); test: flow cytometry on Jurkat/IL2 reporter cells (endogenous CD28), 33.3 nM Fc fusion, PE anti-human Fc
CD28 (human) [35] = molecular target: CD28 (human) (UniProt P10747); remark: listed apart in the source
PD-L1 (human) [36] = molecular target: PD-L1 (human) (UniProt Q9NZQ7); remark: listed apart in the source
CD28 (human) [37] = molecular target: CD28 (human) (UniProt P10747); test: flow cytometry, HEK293 cells transfected with human CD28; negative control
PD-L1 (human) [38] = molecular target: PD-L1 (human) (UniProt Q9NZQ7); test: flow cytometry, HEK293 cells transfected with human PD-L1; negative control
human CTLA-4 (human) [39] = molecular target: human CTLA-4 (human) (UniProt P16410); test: flow cytometry, HEK293 cells transfected with human CTLA-4; negative control

Sequence of PD-L1 (human) (Q9NZQ7 19-290): as the sequence (Q9NZQ7 19-290) above
Sequence of WT CD80 ECD-Fc (inert) (Fc fusion) (chain): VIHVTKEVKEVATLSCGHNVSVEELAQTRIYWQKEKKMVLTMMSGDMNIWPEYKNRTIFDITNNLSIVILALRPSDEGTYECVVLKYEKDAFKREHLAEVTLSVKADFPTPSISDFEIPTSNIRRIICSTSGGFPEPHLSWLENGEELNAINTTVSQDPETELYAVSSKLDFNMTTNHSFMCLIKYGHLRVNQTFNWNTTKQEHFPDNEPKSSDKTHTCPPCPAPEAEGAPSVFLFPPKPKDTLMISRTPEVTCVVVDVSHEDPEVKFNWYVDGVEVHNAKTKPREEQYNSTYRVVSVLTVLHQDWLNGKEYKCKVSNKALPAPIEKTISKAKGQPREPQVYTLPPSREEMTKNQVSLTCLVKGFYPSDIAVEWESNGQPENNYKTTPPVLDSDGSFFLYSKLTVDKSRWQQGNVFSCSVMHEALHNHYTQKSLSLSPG

Substance: variant CD80 IgV-Fc D46V/V68M (Fc fusion)
- MFI at 33.3 nM (PD-L1 (human) [1]): 2270 MFI
- MFI at 33.3 nM (human CTLA-4 (human) [2]): 5330 MFI
- MFI at 33.3 nM (CD28 (human) [3]): 556 MFI
- Fold change to WT CD80 (PD-L1 (human) [4]): 17.7 fold

Substance: WT CD80 ECD-Fc (control of Table E5) (Fc fusion)
- Fold increase in IL2 reporter signal (Jurkat/IL2 reporter assay) (fold vs WT CD80 IgV-Fc) (CD28 (human) [5]): 0.93

Substance: CD80 E35D/D46V/M47L/V68M/L85Q/E88D IgV-Fc, delta linker (Fc fusion)
- IL2-luciferase reporter, fold increase in RLU over WT CD80-IgV-Fc at 5.0 nM (CD28 (human) [17]): 2.77 fold
- IL2-luciferase reporter, fold increase in RLU over WT CD80-IgV-Fc at 5.0 nM (PD-L1 (human) [18]): 2.77 fold

Substance: variant CD80 IgV-Fc E35D/A71D (SEQ ID NO 194) (Fc fusion)
- Fold increase in IL2 reporter signal (Jurkat/IL2 reporter assay) (fold vs WT CD80 IgV-Fc) (CD28 (human) [5]): 0.2

Substance: variant CD80 IgV-Fc E35D/M47V/N48K/K89N (Fc fusion)
- MFI at 33.3 nM (PD-L1 (human) [1]): 6670 MFI
- MFI at 33.3 nM (human CTLA-4 (human) [2]): 43800 MFI
- MFI at 33.3 nM (CD28 (human) [3]): 701 MFI
- Fold change to WT CD80 (PD-L1 (human) [4]): 52.1 fold
- Fold change to WT CD80 (human CTLA-4 (human) [19]): 1.1 fold

Substance: variant CD80 IgV-Fc (inert) H18Y/E35D/M47V/V68M/A71G/D90G (Fc fusion)
- IL2-luciferase reporter, fold increase in RLU over WT CD80-IgV-Fc at 5.0 nM (CD28 (human) [20]): 4.8 fold
- IL2-luciferase reporter, fold increase in RLU over WT CD80-IgV-Fc at 5.0 nM (PD-L1 (human) [21]): 4.8 fold
- MFI at 33.3 nM (CD28 (human) [22]): 6790 MFI
- MFI at 33.3 nM (human CTLA-4 (human) [23]): 17200 MFI
- MFI at 33.3 nM (PD-L1 (human) [24]): 52200 MFI
- Fold change to WT CD80 (human CTLA-4 (human) [25]): 12.4 fold
- Fold change to WT CD80 (PD-L1 (human) [26]): 316 fold
- Fold change to WT CD80 (CD28 (human) [27]): 66.6 fold

Substance: variant CD80 IgV-Fc E35D/T41S/N48T (Fc fusion)
- Ratio of PDL1:CD28 [28]: 30
- Fold change to WT CD80 [29]: 15.8 fold
- Fold change to WT CD80 [30]: 31.2 fold
- Fold change to WT CD80 [31]: 1.1 fold
- MFI at 33.3 nM [32]: 30300 MFI
- MFI at 33.3 nM [33]: 2190 MFI
- MFI at 33.3 nM [34]: 72.4 MFI

Substance: Fc only
- MFI at 66.6 nM (CD28 (human) [37]): 2590
- MFI at 22.2 nM (PD-L1 (human) [38]): 4740
- MFI at 66.6 nM (human CTLA-4 (human) [39]): 5960

Now from value to substance:

- Fold increase in IL2 reporter signal (Jurkat/IL2 reporter assay) (fold vs WT CD80 IgV-Fc) (CD28 (human) [5]): 0.43
Substance: variant CD80 IgV-Fc V22L/M38V/M47T/A71D/L85M (Fc fusion)

- Jurkat/IL2 reporter RLU at 50 nM, CHO/OKT3 aAPC without PD-L1 (CD28 (human) [6]): 420 RLU
- MFI at 66.6 nM (CD28 (human) [7]): 3070 MFI
Substance: WT CD80 ECD-Fc (inert) (Fc fusion)

- RLU at 5.0 nM: Fold Increase over WT CD80-IgV-Fc (CD28 (human) [8]): 0.3 fold
- RLU at 5.0 nM: Fold Increase over WT CD80-IgV-Fc (PD-L1 (human) [9]): 0.3 fold
- RLU at 5.0 nM: Fold Increase over WT CD80-IgV-Fc (CD28 (human) [10]): 5.7 fold
- RLU at 5.0 nM: Fold Increase over WT CD80-IgV-Fc (PD-L1 (human) [11]): 5.7 fold
- Fold change to WT CD80 (CD28 (human) [12]): 11.6 fold
- MFI at 33.3 nM (CD28 (human) [12]): 478 MFI
- Fold change to WT CD80 (human CTLA-4 (human) [13]): 18.7 fold
- MFI at 33.3 nM (human CTLA-4 (human) [13]): 19500 MFI
- Fold change to WT CD80 (PD-L1 (human) [14]): 135 fold
- MFI at 33.3 nM (PD-L1 (human) [14]): 9580 MFI
- Ratio of PDL1:CD28 (PD-L1 (human) [15]): 20
Substance: CD80 IgV-Fc H18Y/E35D/M47L/Y53F/V68M/A71G (Fc fusion)

- MFI at 22.2 nM (PD-L1 (human) [16]): 13800 MFI
Substance: variant CD80 IgV-Fc E35D/A71D (SEQ ID NO: 194) (Fc fusion)

- IL2-luciferase reporter (RLU), fold increase over WT CD80-IgV-Fc at 5.0 nM (CD28 (human) [35]): 1.2 fold
- IL2-luciferase reporter (RLU), fold increase over WT CD80-IgV-Fc at 5.0 nM (PD-L1 (human) [36]): 1.2 fold
Substance: CD80 E35D/M47V/L85M/R94Q IgV-Fc (Fc fusion)
